Source: article PMC5479810

Key:
[1] = target: Tumor necrosis factor alpha (UniProt P01375)
[2] = target: Tumor necrosis factor alpha (UniProt P01375); remark: listed apart in the source

UniProt P01375, sequence (P01375 whole entry): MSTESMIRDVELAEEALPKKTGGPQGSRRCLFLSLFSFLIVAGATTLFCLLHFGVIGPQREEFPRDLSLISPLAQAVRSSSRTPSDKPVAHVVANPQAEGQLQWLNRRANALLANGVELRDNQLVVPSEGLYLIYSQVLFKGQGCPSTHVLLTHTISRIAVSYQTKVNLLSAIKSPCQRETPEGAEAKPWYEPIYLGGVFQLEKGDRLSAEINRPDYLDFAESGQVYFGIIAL

Etanercept reference product Enbrel (Fc fusion)
% Potency (redox: after serum-like redox conditions), NFκB-luciferase reporter gene assay; Enbrel (1034018), 1.8% C78-C88 [1]: 96%
% Potency (redox: after serum-like redox conditions), NFκB-luciferase reporter gene assay; Enbrel (1034842), 1.8% C78-C88 [1]: 95%
% Potency (redox: after serum-like redox conditions), NFκB-luciferase reporter gene assay; Enbrel (1040542), 1.7% C78-C88 [1]: 107%
% Potency (redox: after serum-like redox conditions), NFκB-luciferase reporter gene assay; Enbrel (1062728), 1.8% C78-C88 [1]: 98%
% Potency (redox: after serum-like redox conditions), NFκB-luciferase reporter gene assay; Enbrel (J13793), 1.6% C78-C88 [1]: 100%
% Potency (untreated), relative to reference standard, NFκB-luciferase reporter gene assay; Enbrel (1034018), 2.8% C78-C88 [1]: 81%
% Potency (untreated), relative to reference standard, NFκB-luciferase reporter gene assay; Enbrel (1034842), 2.5% C78-C88 [1]: 85%
% Potency (untreated), relative to reference standard, NFκB-luciferase reporter gene assay; Enbrel (1040542), 2.6% C78-C88 [1]: 89%
% Potency (untreated), relative to reference standard, NFκB-luciferase reporter gene assay; Enbrel (1062728), 2.5% C78-C88 [1]: 85%
% Potency (untreated), relative to reference standard, NFκB-luciferase reporter gene assay; Enbrel (J13793), 2.3% C78-C88 [1]: 92%

Etanercept biosimilar GP2015 (Erelzi) (Fc fusion)
% Potency (redox: after serum-like redox conditions), NFκB-luciferase reporter gene assay; GP2015 DP (30986553), 1.5% C78-C88 [1]: 103%
% Potency (redox: after serum-like redox conditions), NFκB-luciferase reporter gene assay; GP2015 DP (30986557), 1.3% C78-C88 [1]: 101%
% Potency (redox: after serum-like redox conditions), NFκB-luciferase reporter gene assay; GP2015 DP (31161503), 1.7% C78-C88 [1]: 98%
% Potency (redox: after serum-like redox conditions), NFκB-luciferase reporter gene assay; GP2015 DS (B280815), 1.2% C78-C88 [1]: 103%
% Potency (redox: after serum-like redox conditions), NFκB-luciferase reporter gene assay; GP2015 process intermediate (CAP.E), 1.6% C78-C88 [1]: 98%
% Potency (untreated), relative to reference standard, NFκB-luciferase reporter gene assay; GP2015 DP (30986553), 1.2% C78-C88 [1]: 98%
% Potency (untreated), relative to reference standard, NFκB-luciferase reporter gene assay; GP2015 DP (30986557), 1.8% C78-C88 [1]: 97%
% Potency (untreated), relative to reference standard, NFκB-luciferase reporter gene assay; GP2015 DP (31161503), 1.2% C78-C88 [1]: 100%
% Potency (untreated), relative to reference standard, NFκB-luciferase reporter gene assay; GP2015 DS (B280815), 1.0% C78-C88 [1]: 99%
% Potency (untreated), relative to reference standard, NFκB-luciferase reporter gene assay; GP2015 process intermediate (CAP.E), 3.4% C78-C88 [1]: 76%
potency (TNFα inhibition NFκB-luciferase reporter gene assay in HEK293 cells); main peak of large scale HIC separation of GP2015 [2]: 100%

GP2015 late eluting HIC fraction (etanercept enriched in incorrectly disulfide-bridged variants) (Fc fusion)
% Potency (redox: after serum-like redox conditions that reshuffle the incorrect bridges), NFκB-luciferase reporter gene assay; GP2015 late eluting HIC fraction, 2.0% C78-C88 [1]: 93%
% Potency (untreated), relative to reference standard, NFκB-luciferase reporter gene assay; GP2015 late eluting HIC fraction, 5.5% C78-C88 [1]: 58%
